Data: ChEMBL document CHEMBL1138116, “Synthesis and reactivity with beta-lactamases of a monobactam bearing a retro-amide side chain” (Bioorg Med Chem Lett, 2006)

Tests used:
[1] = substrate: O=C(NCc1ccccc1)C1CN(S(=O)(=O)O)C1=O; experiment: (§1) Binding affinity to class C beta lactamase of Enterobacter cloacae P99
[2] = substrate: O=C(Cc1ccccc1)N[C@H]1CN(S(=O)(=O)O)C1=O; experiment: as §1
[3] = substrate: O=C(NCc1ccccc1)C1CN(S(=O)(=O)O)C1=O; experiment: (§2) Binding affinity to class A beta lactamase of Staphylococcus aureus PC1
[4] = substrate: O=C(Cc1ccccc1)N[C@H]1CN(S(=O)(=O)O)C1=O; experiment: as §2
[5] = substrate: O=C(NCc1ccccc1)C1CN(S(=O)(=O)O)C1=O; experiment: (§3) Binding affinity to class D beta lactamase OXA1 of Escherichia coli
[6] = substrate: O=C(Cc1ccccc1)N[C@H]1CN(S(=O)(=O)O)C1=O; experiment: as §3
[7] = substrate: O=C(NCc1ccccc1)C1CN(S(=O)(=O)O)C1=O; experiment: (§4) Binding affinity to TEM class A beta lactamase from the TEM2 plasmid; conditions: Escherichia coli
[8] = substrate: O=C(Cc1ccccc1)N[C@H]1CN(S(=O)(=O)O)C1=O; experiment: as §4; conditions: Escherichia coli

B1: Beta-lactamase class C (Enterobacter cloacae), Q59401 (protein)
chain: MMKKSLCCALLLGISCSALATPVSEKQLAEVVANTVTPLMKAQSVPGMAVAVIYQGKPHYYTFGKADIAANKPVTPQTLFELGSISKTFTGVLGGDAIARGEISLDDPVTRYWPQLTGKQWQGIRMLDLATYTAGGLPLQVPDEVTDNASLLRFYQNWQPQWKPGTTRLYANASIGLFGALAVKPSGMPYEQAMTTRVLKPLKLDHTWINVPKAEEAHYAWGYRDGKAVRAVRVSPGMLDAQAYGVKTNVQDMANWVMANMAPENVADASLKQGIALAQSRYWRIGSMYQGLGWEMLNWPVEANTVVEGSDSKVALAPLPVAEVNPPAPPVKASWVHKTGSTGGFGSYVAFIPEKQIGIVMLANTSYPNPARVEAAYHILEALQ
Protein B1 has a Km [1] of 75 µM and a Km [2] of 1000 µM.

B2: Beta-lactamase (Staphylococcus aureus), P00807 (protein)
chain: MKKLIFLIVIALVLSACNSNSSHAKELNDLEKKYNAHIGVYALDTKSGKEVKFNSDKRFAYASTSKAINSAILLEQVPYNKLNKKVHINKDDIVAYSPILEKYVGKDITLKALIEASMTYSDNTANNKIIKEIGGIKKVKQRLKELGDKVTNPVRYEIELNYYSPKSKKDTSTPAAFGKTLNKLIANGKLSKENKKFLLDLMLNNKSGDTLIKDGVPKDYKVADKSGQAITYASRNDVAFVYPKGQSEPIVLVIFTNKDNKSDKPNDKLISETAKSVMKEF
B2 showed a Km [3] of 300 µM and a Km [4] of 70 µM.

B3: Beta-lactamase OXA-1 (Escherichia coli), P13661 (protein)
chain: MKNTIHINFAIFLIIANIIYSSASASTDISTVASPLFEGTEGCFLLYDASTNAEIAQFNKAKCATQMAPDSTFKIALSLMAFDAEIIDQKTIFKWDKTPKGMEIWNSNHTPKTWMQFSVVWVSQEITQKIGLNKIKNYLKDFDYGNQDFSGDKERNNGLTEAWLESSLKISPEEQIQFLRKIINHNLPVKNSAIENTIENMYLQDLDNSTKLYGKTGAGFTANRTLQNGWFEGFIISKSGHKYVFVSALTGNLGSNLTSSIKAKKNAITILNTLNL
B3 gave a Km [5] of 2300 µM and a Km [6] of 29 µM.

B4: Beta-lactamase TEM (Escherichia coli), P62593 (protein)
chain: MSIQHFRVALIPFFAAFCLPVFAHPETLVKVKDAEDQLGARVGYIELDLNSGKILESFRPEERFPMMSTFKVLLCGAVLSRVDAGQEQLGRRIHYSQNDLVEYSPVTEKHLTDGMTVRELCSAAITMSDNTAANLLLTTIGGPKELTAFLHNMGDHVTRLDRWEPELNEAIPNDERDTTMPAAMATTLRKLLTGELLTLASRQQLIDWMEADKVAGPLLRSALPAGWFIADKSGAGERGSRGIIAALGPDGKPSRIVVIYTTGSQATMDERNRQIAEIGASLIKHW
B4 showed a Km [7] of 2500 µM and a Km [8] of 6800 µM.
